Measured values from patent US20190040155A1 (AFFIMED, published 2019).

Key:
CD19 [1] = target: T1, CD19 (UniProt P15391 20-556, limits assumed); assay: flow cytometry on Raji cells, anti-His detection
T1 construct: whole, on cells; Raji is a human cell line; also called CD19 on CD19+/CD30- Raji cells
T1 sequence (looked up): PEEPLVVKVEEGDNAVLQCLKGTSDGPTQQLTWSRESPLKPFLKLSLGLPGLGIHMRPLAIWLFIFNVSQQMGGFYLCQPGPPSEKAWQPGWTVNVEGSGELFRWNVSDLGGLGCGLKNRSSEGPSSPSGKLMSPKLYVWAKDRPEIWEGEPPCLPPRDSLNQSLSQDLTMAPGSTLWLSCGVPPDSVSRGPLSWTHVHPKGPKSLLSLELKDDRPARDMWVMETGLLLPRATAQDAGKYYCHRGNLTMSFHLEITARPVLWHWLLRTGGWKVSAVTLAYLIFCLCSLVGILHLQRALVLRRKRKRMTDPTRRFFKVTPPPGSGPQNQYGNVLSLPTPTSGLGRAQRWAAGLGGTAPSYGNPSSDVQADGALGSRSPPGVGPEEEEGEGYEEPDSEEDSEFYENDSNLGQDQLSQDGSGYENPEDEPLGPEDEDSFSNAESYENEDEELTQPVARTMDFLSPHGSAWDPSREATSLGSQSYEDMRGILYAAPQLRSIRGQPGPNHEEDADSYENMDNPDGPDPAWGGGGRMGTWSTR
Procedure: (§1) Single-positive CD19+/CD30− Raji and CD19-/CD30+ KARPAS-299 cells as well as double-positive CD19+/CD30+ MEC-1 were stained with serial dilutions of the trispecific antibody molecules and cell surface bound antibodies were detected by mAb anti-His followed by FITC-conjugated goat anti-mouse IgG. Mean fluorescence intensities determined by flow cytometry were used to calculate KD values by non-linear regression. KD values for trispecific antibody molecules were determined in two independent experiments. […]
(§2) After repeated washing with FACS buffer, cell-bound antibodies were detected with 10 μg/mL anti-His mAb 13/45/31-2 (Dianova, Hamburg, Germany, cat.: DIA910-1MG) followed by 15 μg/mL FITC-conjugated goat anti-mouse antibody (Dianova, cat.: 115-095-062). […] The fluorescence of 2-5×10³ living cells was measured using a Beckman-Coulter FC500 MPL flow cytometer using the MXP software (Beckman-Coulter, Krefeld, Germany) or a Millipore Guava EasyCyte flow cytometer (Merck Millipore, Schwalbach, Germany). Mean fluorescence intensities of the cell samples were calculated using CXP software (Beckman-Coulter) or Incyte software (Merck Millipore, Schwalbach, Germany). […]

CD30 [2] = target: T2, CD30 (UniProt P28908 19-595, limits assumed); assay: flow cytometry on KARPAS-299 cells, anti-His detection
T2 construct: whole, on cells; also called CD30 on CD19-/CD30+ KARPAS-299 cells
T2 sequence (looked up): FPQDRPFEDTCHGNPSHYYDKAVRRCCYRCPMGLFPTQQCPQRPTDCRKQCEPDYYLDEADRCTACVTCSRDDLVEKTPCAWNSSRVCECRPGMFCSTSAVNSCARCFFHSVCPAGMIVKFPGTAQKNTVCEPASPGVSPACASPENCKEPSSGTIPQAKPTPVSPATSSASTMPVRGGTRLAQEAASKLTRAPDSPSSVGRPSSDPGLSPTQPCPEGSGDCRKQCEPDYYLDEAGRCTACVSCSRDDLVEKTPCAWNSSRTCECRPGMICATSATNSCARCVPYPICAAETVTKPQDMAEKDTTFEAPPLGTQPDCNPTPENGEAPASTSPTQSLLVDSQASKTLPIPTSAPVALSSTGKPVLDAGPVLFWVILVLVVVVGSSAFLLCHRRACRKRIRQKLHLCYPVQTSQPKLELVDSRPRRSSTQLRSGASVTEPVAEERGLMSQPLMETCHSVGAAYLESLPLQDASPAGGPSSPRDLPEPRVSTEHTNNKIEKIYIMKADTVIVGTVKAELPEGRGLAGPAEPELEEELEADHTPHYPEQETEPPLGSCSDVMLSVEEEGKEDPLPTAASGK
Procedure: as §1, §2

CD16A (FcγRIIIA) = target: T3, CD16A (FcγRIIIA) (human, UniProt P08637 17-254); assay: flow cytometry on primary NK cells
T3 construct: whole, on cells; also called CD16A on primary NK cells
Procedure: Aliquots of the indicated cell lines were incubated with […] of serial dilutions of His-tagged antibodies in FACS buffer (PBS, Invitrogen, cat.: 14190-169) containing 2% heat-inactivated FCS (Invitrogen, cat.: 10270-106), 0.1% sodium azide (Roth, Karlsruhe, Germany, cat.: A1430.0100) for 45 min on ice. Staining of NK-cells was performed in FACS buffer supplemented with 1 mg/mL polyclonal human antibody (Gammanorm, Octapharma, Langenfeld, Germany, cat.: PZN-2451445) to block binding of antibodies to Fc[…] receptors.
After repeated washing with FACS buffer, cell-bound antibodies were detected with 10 μg/mL anti-His mAb 13/45/31-2 (Dianova, Hamburg, Germany, cat.: DIA910-1MG) followed by 15 μg/mL FITC-conjugated goat anti-mouse antibody (Dianova, cat.: 115-095-062). The cells were then washed again and resuspended in 0.2 mL of FACS buffer containing 2 μg/mL propidium iodide (PI) (Sigma, cat.: P4170) in order to exclude dead cells. The fluorescence of 2-5×10³ living cells was measured using a Beckman-Coulter FC500 MPL flow cytometer using the MXP software (Beckman-Coulter, Krefeld, Germany) or a Millipore Guava EasyCyte flow cytometer (Merck Millipore, Schwalbach, Germany). Mean fluorescence intensities of the cell samples were calculated using CXP software (Beckman-Coulter) or Incyte software (Merck Millipore, Schwalbach, Germany). After subtracting the fluorescence intensity values of the cells stained with the secondary and tertiary reagents alone, the values were used for analysis using the GraphPad Prism (GraphPad Prism version 6.00 for Windows, GraphPad Software, La Jolla Calif. USA). For the calculation of KD, the equation for one-site-binding (hyperbolic) was used.

CD30 [3] = target: T2, CD30; assay: flow cytometry on Karpas-299 cells
Procedure: as §1, §2

CD19 [4] = target: T1, CD19; assay: flow cytometry on Raji cells
Procedure: as §1, §2

Measured: binding result

T3 sequence (P08637 17-254): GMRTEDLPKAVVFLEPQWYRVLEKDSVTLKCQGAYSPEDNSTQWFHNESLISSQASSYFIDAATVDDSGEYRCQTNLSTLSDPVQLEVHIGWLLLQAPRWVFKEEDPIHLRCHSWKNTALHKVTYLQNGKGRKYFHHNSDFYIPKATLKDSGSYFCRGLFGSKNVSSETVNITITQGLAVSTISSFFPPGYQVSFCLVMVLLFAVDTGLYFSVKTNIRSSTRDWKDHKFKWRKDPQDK

B1: aTriFlex_101 (other)
chain 1: QVQLQQSGAELARPGASVKMSCKASGYTFTTYTIHWVRQRPGHDLEWIGYINPSSGYSDYNQNFKGKTTLTADKSSNTAYMQLNSLTSEDSAVYYCARRADYGNYEYTWFAYWGQGTTVTVSSGGSGGSGGSGGSGGSGGSDIVMTQSPKFMSTSVGDRVTVTCKASQNVGTNVAWFQQKPGQSPKVLIYSASYRYSGVPDRFTGSGSGTDFTLTISNVQSEDLAEYFCQQYHTYPLTFGGGTKLEINGGSGGSGGSQVQLVQSGAEVKKPGESLKVSCKASGYTFTSYYMHWVRQAPGQGLEWMGIINPSGGSTSYAQKFQGRVTMTRDTSTSTVYMELSSLRSEDTAVYYCARGSAYYYDFADYWGQGTLVTVSSGGSGGSGGSQVQLVQSGAEVKKPGESLKVSCKASGYTFTSYYMHWVRQAPGQGLEWMGIINPSGGSTSYAQKFQGRVTMTRDTSTSTVYMELSSLRSEDTAVYYCARGSAYYYDFADYWGQGTLVTVSSGGSGGSGGSSYVLTQPPSVSVAPGQTARITCGGNNIGSKTVHWYQQKPGQAPVLVVYDDSDRPSGIPERFSGSNSGNTATLTISRVEAGDEADYYCQVGTDWSDHLQVFGGGTKLTVLGGSGGSGGSGGSGGSGGSGGSEVQLVQSGAEVKKPGESLKISCKGSGYSFTSNWIGWVRQMPGKGLEWMGMIWPGDSDTMYSPSFQGQVTISADESINTAYLQWSSLKASDTAMYYCARRETTTVGRYYYAMDYWGQGTLVTVSSAAAGSHHHHHH
chain 2: SYVLTQPSSVSVAPGQTATISCGGHNIGSKNVHWYQQRPGQSPVLVIYQDNKRPSGIPERFSGSNSGNTATLTISGTQAMDEADYYCQVWDNYSVLFGGGTKLTVLGGSGGSGGSSYVLTQPSSVSVAPGQTATISCGGHNIGSKNVHWYQQRPGQSPVLVIYQDNKRPSGIPERFSGSNSGNTATLTISGTQAMDEADYYCQVWDNYSVLFGGGTKLTVLAAAGSDYKDDDDK
notes: Tetravalent, trispecific (CD30, CD19, CD16A) Fv antibody without constant domains; heterodimer of two non-covalently associated polypeptides; also called antibody molecule a); construct a)
binds: CD19 [1] | CD30 [2] | CD16A (FcγRIIIA)

B2: aTriFlex_104 (other)
chain 1: QVQLQQSGAELARPGASVKMSCKASGYTFTTYTIHWVRQRPGHDLEWIGYINPSSGYSDYNQNFKGKTTLTADKSSNTAYMQLNSLTSEDSAVYYCARRADYGNYEYTWFAYWGQGTTVTVSSGGSGGSGGSGGSGGSGGSDIVMTQSPKFMSTSVGDRVTVTCKASQNVGTNVAWFQQKPGQSPKVLIYSASYRYSGVPDRFTGSGSGTDFTLTISNVQSEDLAEYFCQQYHTYPLTFGGGTKLEINGGSGGSGGSSYVLTQPSSVSVAPGQTATISCGGHNIGSKNVHWYQQRPGQSPVLVIYQDNKRPSGIPERFSGSNSGNTATLTISGTQAMDEADYYCQVWDNYSVLFGGGTKLTVLGGSGGSGGSSYVLTQPSSVSVAPGQTATISCGGHNIGSKNVHWYQQRPGQSPVLVIYQDNKRPSGIPERFSGSNSGNTATLTISGTQAMDEADYYCQVWDNYSVLFGGGTKLTVLGGSGGSGGSSYVLTQPPSVSVAPGQTARITCGGNNIGSKTVHWYQQKPGQAPVLVVYDDSDRPSGIPERFSGSNSGNTATLTISRVEAGDEADYYCQVGTDWSDHLQVFGGGTKLTVLGGSGGSGGSGGSGGSGGSGGSEVQLVQSGAEVKKPGESLKISCKGSGYSFTSNWIGWVRQMPGKGLEWMGMIWPGDSDTMYSPSFQGQVTISADESINTAYLQWSSLKASDTAMYYCARRETTTVGRYYYAMDYWGQGTLVTVSSAAAGSDYKDDDDK
chain 2: QVQLVQSGAEVKKPGESLKVSCKASGYTFTSYYMHWVRQAPGQGLEWMGIINPSGGSTSYAQKFQGRVTMTRDTSTSTVYMELSSLRSEDTAVYYCARGSAYYYDFADYWGQGTLVTVSSGGSGGSGGSQVQLVQSGAEVKKPGESLKVSCKASGYTFTSYYMHWVRQAPGQGLEWMGIINPSGGSTSYAQKFQGRVTMTRDTSTSTVYMELSSLRSEDTAVYYCARGSAYYYDFADYWGQGTLVTVSSAAAGSHHHHHH
notes: Tetravalent, trispecific (CD30, CD19, CD16A) Fv antibody without constant domains; heterodimer of two polypeptides; also called antibody molecule d); construct d)
binds: CD30 [3] | CD19 [4] | CD16A (FcγRIIIA)

B3: aTriFlex_102 (other)
chain 1: SYVLTQPPSVSVAPGQTARITCGGNNIGSKTVHWYQQKPGQAPVLVVYDDSDRPSGIPERFSGSNSGNTATLTISRVEAGDEADYYCQVGTDWSDHLQVFGGGTKLTVLGGSGGSGGSGGSGGSGGSGGSEVQLVQSGAEVKKPGESLKISCKGSGYSFTSNWIGWVRQMPGKGLEWMGMIWPGDSDTMYSPSFQGQVTISADESINTAYLQWSSLKASDTAMYYCARRETTTVGRYYYAMDYWGQGTLVTVSSGGSGGSGGSQVQLVQSGAEVKKPGESLKVSCKASGYTFTSYYMHWVRQAPGQGLEWMGIINPSGGSTSYAQKFQGRVTMTRDTSTSTVYMELSSLRSEDTAVYYCARGSAYYYDFADYWGQGTLVTVSSGGSGGSGGSQVQLVQSGAEVKKPGESLKVSCKASGYTFTSYYMHWVRQAPGQGLEWMGIINPSGGSTSYAQKFQGRVTMTRDTSTSTVYMELSSLRSEDTAVYYCARGSAYYYDFADYWGQGTLVTVSSGGSGGSGGSQVQLQQSGAELARPGASVKMSCKASGYTFTTYTIHWVRQRPGHDLEWIGYINPSSGYSDYNQNFKGKTTLTADKSSNTAYMQLNSLTSEDSAVYYCARRADYGNYEYTWFAYWGQGTTVTVSSGGSGGSGGSGGSGGSGGSDIVMTQSPKFMSTSVGDRVTVTCKASQNVGTNVAWFQQKPGQSPKVLIYSASYRYSGVPDRFTGSGSGTDFTLTISNVQSEDLAEYFCQQYHTYPLTFGGGTKLEINAAAGSHHHHHH
chain 2: SYVLTQPSSVSVAPGQTATISCGGHNIGSKNVHWYQQRPGQSPVLVIYQDNKRPSGIPERFSGSNSGNTATLTISGTQAMDEADYYCQVWDNYSVLFGGGTKLTVLGGSGGSGGSSYVLTQPSSVSVAPGQTATISCGGHNIGSKNVHWYQQRPGQSPVLVIYQDNKRPSGIPERFSGSNSGNTATLTISGTQAMDEADYYCQVWDNYSVLFGGGTKLTVLAAAGSDYKDDDDK
notes: Tetravalent, trispecific (CD30, CD19, CD16A) Fv antibody without constant domains; heterodimer of two polypeptides; also called antibody molecule b); construct b)
binds: CD19 [1] | CD30 [2] | CD16A (FcγRIIIA)
